Laboratory results: publication PMC10256718

Target: Quinol-dependent nitric oxide reductase from Alcaligenes xylosoxidans (His-tagged AxqNOR-BRIL) (Alcaligenes xylosoxidans)
Assay: cryo-EM structure; single-particle cryoEM, 2.2 Å, refined in C2 symmetry; sample at 3 mg/mL in Tris-HCl buffer pH 7.0, 150 mM NaCl, 0.05% DTM; dimer

## Quinol-dependent nitric oxide reductase from Alcaligenes xylosoxidans (His-tagged AxqNOR-BRIL) (enzyme)
  stoichiometry N: 2
